According to patent US20050108782A1, “Transgenic RS1-/- animal and uses thereof” (priority 2003, published 2005):

T1: hSGLT1 (Homo sapiens, UniProt P13866)
T1 construct: expressed in transfected cells; host or cells: Xenopus laevis oocytes (cRNA injection)
T1 sequence (P13866 1-664): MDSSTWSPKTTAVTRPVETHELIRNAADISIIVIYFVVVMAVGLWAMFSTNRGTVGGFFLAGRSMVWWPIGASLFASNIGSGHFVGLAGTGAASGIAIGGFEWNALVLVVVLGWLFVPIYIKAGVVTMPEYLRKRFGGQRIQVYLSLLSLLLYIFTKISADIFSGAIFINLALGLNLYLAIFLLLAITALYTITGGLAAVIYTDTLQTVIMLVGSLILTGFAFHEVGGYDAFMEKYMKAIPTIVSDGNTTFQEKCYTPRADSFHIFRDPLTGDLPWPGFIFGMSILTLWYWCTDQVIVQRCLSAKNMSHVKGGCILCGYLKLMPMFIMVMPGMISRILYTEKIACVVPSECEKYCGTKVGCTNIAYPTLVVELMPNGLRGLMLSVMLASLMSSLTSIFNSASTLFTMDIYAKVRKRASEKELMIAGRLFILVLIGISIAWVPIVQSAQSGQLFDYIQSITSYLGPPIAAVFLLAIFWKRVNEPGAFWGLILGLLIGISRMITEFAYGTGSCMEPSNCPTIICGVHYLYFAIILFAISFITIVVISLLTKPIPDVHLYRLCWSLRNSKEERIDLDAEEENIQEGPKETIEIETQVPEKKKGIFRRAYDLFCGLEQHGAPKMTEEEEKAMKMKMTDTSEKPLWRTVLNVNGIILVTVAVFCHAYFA


How the values were obtained:
hSGLT1 = target: T1, hSGLT1; test: [14C]AMG uptake expressed by hSGLT1 in Xenopus laevis oocytes; format: cell-based
Method: (§1) Stage V-VI oocytes were removed from Xenopus laevis clawed toads, selected and injected with cRNAs or water as described earlier (Veyhl et al., (1994) J. Biol. Chem. 268, 25041-25053). Per oocyte […] of water (control) or water containing plasma membrane transporter cRNAs alone or together with different amounts of hRS1-cRNA were injected. For translation the injected oocytes were incubated for 2-3 days (16° C.) in ORi buffer (5 mM HEPES-Tris, pH 7.4, 100 mM NaCl, 3 mM KCl, 2 mM CaCl and 1 mM MgCl2) containing 50 mg/l gentamycin (Veyhl et al., (1994) J. Biol. Chem. 268, 25041-25053).
(§2) [^14C]-AMG uptake of expressed plasma membrane transporters in oocytes was measured as described earlier Veyhl et al., (1994) J. Biol. Chem. 268, 25041-25053. Each uptake value represents the mean±SEM (n=8-10 oocytes). All experiments were performed with at least 3 batches of Xenopus oocytes.
Dynamin, a member of structurally related but functionally heterogeneous family of GTPases, that is required for clathrin-mediated and other types of endocytosis. After GTP binding dynamin assembles to a ring around the neck of coated pits and induces fission and release of vesicles upon hydrolysis of GTP (Eccleston et al., (2002) Eur. Biophys. J. 31, 275-282.). […] Oocytes were injected with 2.5 ng of hSGLT1-cRNA or with 2.5 ng pf hSGLT1-cRNA plus 10 ng of hRS1-cRNA. In some experiments either 10 ng of wild-type (DyWt) dynamin cRNA or 10 ng of dominant gegative dynamin mutant (DyMu) cRNA were coinjected. After three days of incubation for expression, phlorizin inhibitable uptake of 50 μM of [^14C]AMG was measured over a time period of 15 min as described earlier (Lambotte et al., (1996) DNA Cell Biol. 15, 769-777).
(§3) According to the methods described in Example 11 Xenopus oocytes were injected with 2.5 ng of SGLT1-cRNA or with 2.5 ng of SGLT1-cRNA plus 10 ng of hRS1 and incubated three days for expression (FIG. 11). Then the oocytes were injected with 50 nl Ori buffer (controls) or with 50 nl Ori buffer containing 20 μM of the protein kinase C activator sn-1,2-dioctanoyl glycerol (DOG). After 30 min incubation the phlorizin inhibitable uptake of 50 μM [^14C]AMG was measured as in FIG. 10.

hSGLT1 and hRS1 = test: [14C]AMG uptake in Xenopus laevis oocytes coexpressing hSGLT1 and hRS1, with protein kinase C activation; format: cell-based, human; settings: coexpression of hSGLT1 and hRS1; 50 nl Ori buffer containing 20 μM DOG injected, 30 min incubation; 50 μM [14C]AMG
Method: as §1, §2
as §3, with “10. […]” for “10.”

Row | expression of AMG uptake by hSGLT1 after coexpression of hRS1 (hSGLT1; 2.5 ng SGLT1-cRNA plus 10 ng hRS1, three days, FIG. 11) | phlorizin inhibitable uptake of 50 μM [14C]AMG (hSGLT1; 2.5 ng hSGLT1-cRNA plus 10 ng hRS1-cRNA, three days expression, hSGLT1 alone 56±7) [pmol/oocyte×15 min] | phlorizin inhibitable uptake of 50 μM [14C]AMG (hSGLT1; hSGLT1-cRNA plus hRS1-cRNA, 10 ng dominant negative dynamin mutant (DyMu) cRNA coinjected) [pmol/oocyte×15 min] | phlorizin inhibitable uptake of 50 μM [14C]AMG (hSGLT1; hSGLT1-cRNA plus hRS1-cRNA, 10 ng wild-type dynamin (DyWt) cRNA coinjected) [pmol/oocyte×15 min] | Molecule | uptake of AMG expressed by hSGLT1, change by DOG (hSGLT1; hSGLT1 alone, 50 nl Ori buffer containing 20 μM DOG injected, 30 min incubation, 50 μM [14C]AMG) | expressed uptake of AMG, change by DOG (hSGLT1 and hRS1) | Km value of AMG uptake expressed by hSGLT1 (hSGLT1; coexpression with hRS1, unpublished data not shown) | Vmax of AMG transport by hSGLT1 after coexpression with hRS1 (hSGLT1; tracer uptake studies and electrical measurements, unpublished data not shown)
1 |  |  |  |  | CCCCCCCC(=O)OC[C@H](CO)OC(=O)CCCCCCC [DOG, sn-1,2-dioctanoyl glycerol, reference compound] | increased | decreased |  | 
2 | reduced | 10±1.5 | 37±3.5 | 2.5 | hRS1: human RS1 protein, expressed in Xenopus oocytes from injected hRS1-cRNA; regulator of SGLT1 (protein, UniProt Q92681 1-617, looked up) Regulatory solute carrier …: MSSLPTSDGFNHPARSSGQSPDVGNPMSLARSVSASVCPIKPSDSDRIEPKAVKALKASAEFQLNSEKKEHLSLQDLSDHASSADHAPTDQSPAMPMQNSSEEITVAGNLEKSAERSTQGLKFHLHTRQEASLSVTSTRMHEPQMFLGEKDWHPENQNLSQVSDPQQHEEPGNEQYEVAQQKASHDQEYLCNIGDLELPEERQQNQHKIVDLEATMKGNGLPQNVDPPSAKKSIPSSECSGCSNSETFMEIDTAQQSLVTLLNSTGRQNANVKNIGALDLTLDNPLMEVETSKCNPSSEILNDSISTQDLQPPETNVEIPGTNKEYGHYSSPSLCGSCQPSVESAEESCPSITAALKELHELLVVSSKPASENTSEEVICQSETIAEGQTSIKDLSERWTQNEHLTQNEQCPQVSFHQAISVSVETEKLTGTSSDTGREAVENVNFRSLGDGLSTDKEGVPKSRESINKNRSVTVTSAKTSNQLHCTLGVEISPKLLAGEEDALNQTSEQTKSLSSNFILVKDLGQGIQNSVTDRPETRENVCPDASRPLLEYEPPTSHPSSSPAILPPLIFPATDIDRILRAGFTLQEALGALHRVGGNADLALLVLLAKNIVVPT |  |  | does not change | decreased
